These results are taken from PMC9687920, “Effects of Boric Acid and Storage Temperature on the Analysis of Microalbumin Using Aptasensor-Based Fluorescent Detection”.

The data set addresses human serum albumin (HSA) (Homo sapiens, UniProt P02768 25-609). The data set is described as follows: graphene oxide fluorescence recovery (competition with GO quencher); PBS; PBS or PBS with 2% (w/v) boric acid, ambient temperature, 5 mg/L GO stock, 30 min with HSA in the dark; pH not given. Conditions: protein: commercial; label: 5'-Cy5.

Sequence of human serum albumin (HSA) (P02768 25-609): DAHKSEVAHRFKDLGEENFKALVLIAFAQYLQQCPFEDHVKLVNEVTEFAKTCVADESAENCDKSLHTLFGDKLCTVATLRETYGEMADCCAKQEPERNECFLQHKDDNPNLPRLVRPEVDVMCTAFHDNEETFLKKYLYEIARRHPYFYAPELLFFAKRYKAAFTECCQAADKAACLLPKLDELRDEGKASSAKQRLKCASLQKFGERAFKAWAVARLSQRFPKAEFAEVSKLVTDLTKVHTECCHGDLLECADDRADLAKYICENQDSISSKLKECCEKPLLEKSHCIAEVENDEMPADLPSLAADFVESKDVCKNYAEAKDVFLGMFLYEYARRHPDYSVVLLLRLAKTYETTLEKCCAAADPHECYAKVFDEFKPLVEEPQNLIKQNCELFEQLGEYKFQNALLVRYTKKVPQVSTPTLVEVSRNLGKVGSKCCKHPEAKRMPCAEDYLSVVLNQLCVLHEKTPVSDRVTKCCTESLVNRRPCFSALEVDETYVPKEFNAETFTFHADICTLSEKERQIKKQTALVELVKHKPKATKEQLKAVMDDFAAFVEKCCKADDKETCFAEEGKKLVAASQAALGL

B1: H8 aptamer (ssDNA)
DNA: ATACCAGCTTATTCAATTCCCCCGGCTTTGGTTTAGAGGTAGTTGCTCATTACTTGTACGCTCCGGATGAGATAGTAAGTGCAATCT
Take B1: the binding result is recorded as “binds”.
